Results from patent US20240116985A1 (published 2024).
Starred links: 1 amine or outer side, 2 acyl side, 3 side chain; linkers in the order of their positions; H or OH if unused. Positions of bridges follow the written chain, without caps; N, C: chain ends. Non-standard residues stand in square brackets, D forms with d. Primed or numbered codes have the meaning given here. *: point of attachment. PyrS2″ = (S)-3-amino-1-((pent-4-en-1-yloxy)carbonyl)pyrrolidine-3-carboxylic acid (stapling residue), C=CCCCOC(=O)N1CC[C@@](N[*:1])(C(=O)[*:2])C1; B5(4) = 2,2-bis(4-pentenyl)glycine = 2-amino-2-(pent-4-en-1-yl)hept-6-enoic acid (stitching residue), C=CCCCC(CCCC=C)(N[*:1])C(=O)[*:2]; B5(5) = 2,2-bis(4-pentenyl)glycine, 2-amino-2-(pent-4-en-1-yl)hept-6-enoic acid (stitching residue), C=CCCCC(CCCC=C)(N[*:1])C(=O)[*:2]; TfeGA = (S)-2-amino-3-((carboxymethyl)(2,2,2-trifluoroethyl)amino)propanoic acid, O=C([C@H](CN(CC(=O)[*:3])CC(F)(F)F)N[*:1])[*:2]; PyrS2 = (S)-3-amino-1-((pent-4-en-1-yloxy)carbonyl)pyrrolidine-3-carboxylic acid, C=CCCCOC(=O)N1CC[C@@](N[*:1])(C(=O)[*:2])C1; Phe(3-COOH) = N[C@@H](Cc1cccc(C(=O)O)c1)C(=O)O; 2F3MeF = Cc1cccc(C[C@H](N[*:1])C(=O)[*:2])c1F; Phe(2-CF3) = N[C@@H](Cc1ccccc1C(F)(F)F)C(=O)O; Phe(2-Cl) = N[C@@H](Cc1ccccc1Cl)C(=O)O; Bta = N[C@@H](Cc1csc2ccccc12)C(=O)O; αAllylPro = C=CC[C@@]1(C(=O)O)CCCN1; tBuAla = CC(C)(C)C[C@H](N)C(=O)O; 3Thi = N[C@@H](Cc1ccsc1)C(=O)O; Thr(ol) = C[C@@H](O)[C@H](N)CO; NH(CH2)6NH2 = NCCCCCCN*; Alaol = C[C@@H](CO)N*; Aib = CC(C)(N)C(=O)O

T1: beta-catenin in DLD1 TCF/LEF luciferase reporter cells (UniProt P35222 1-781)
T1 sequence (looked up): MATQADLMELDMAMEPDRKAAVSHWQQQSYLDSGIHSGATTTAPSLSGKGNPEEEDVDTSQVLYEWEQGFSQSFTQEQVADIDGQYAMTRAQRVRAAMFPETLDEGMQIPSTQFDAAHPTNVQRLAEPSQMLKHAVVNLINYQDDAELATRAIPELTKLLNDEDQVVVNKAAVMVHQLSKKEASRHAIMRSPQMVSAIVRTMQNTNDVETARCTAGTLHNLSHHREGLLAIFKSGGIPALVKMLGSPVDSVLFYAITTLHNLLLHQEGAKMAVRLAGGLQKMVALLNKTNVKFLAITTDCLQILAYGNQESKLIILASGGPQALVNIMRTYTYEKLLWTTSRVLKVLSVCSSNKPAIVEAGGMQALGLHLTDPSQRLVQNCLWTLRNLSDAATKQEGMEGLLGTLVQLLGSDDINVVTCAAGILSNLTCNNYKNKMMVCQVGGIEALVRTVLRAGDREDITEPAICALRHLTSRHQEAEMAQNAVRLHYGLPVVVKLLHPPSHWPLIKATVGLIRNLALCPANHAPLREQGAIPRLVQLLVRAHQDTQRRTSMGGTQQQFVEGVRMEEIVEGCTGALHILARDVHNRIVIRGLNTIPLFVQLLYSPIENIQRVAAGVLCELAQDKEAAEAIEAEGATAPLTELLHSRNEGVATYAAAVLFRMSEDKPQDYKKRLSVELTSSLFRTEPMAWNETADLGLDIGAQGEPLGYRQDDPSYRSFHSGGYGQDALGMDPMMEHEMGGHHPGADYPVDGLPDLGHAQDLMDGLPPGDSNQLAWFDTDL

T2: B-cat-Halo (beta-catenin HaloTag NanoBRET construct expressed in HEK293 cells) (UniProt P35222 1-781)
T2 sequence (looked up): T1 sequence (looked up)

T3: B-cat-Halo (UniProt P35222 1-781)
T3 sequence (looked up): T1 sequence (looked up)

T4: beta-catenin in DLD1 TCF/LEF reporter cells (UniProt P35222 1-781)
T4 sequence (looked up): T1 sequence (looked up)

B1: I-2416 (peptide)
peptide: Ac-[αAllylPro]D[tBuAla][B5(5)]NT[Aib]AFN[PyrS2″][3Thi][Bta]T-NH2
modifications: staple 1-4, 4-11
B2: I-2400 (peptide)
peptide: Ac-[αAllylPro]D[tBuAla][B5(5)]D[Phe(3-COOH)]AAFL[PyrS2][Phe(2-CF3)][Bta]QFA-NH2
modifications: staple 1-4, 4-11
B3: I-2401 (peptide)
peptide: Ac-[αAllylPro]D[tBuAla][B5(5)]D[Phe(3-COOH)]AAFL[PyrS2][Phe(2-CF3)][Bta]QVA-NH2
modifications: staple 1-4, 4-11
B4: I-2413 (peptide)
peptide: Ac-[αAllylPro]D[tBuAla][B5(5)]NT[Aib]AFN[PyrS2″][3Thi][Bta]R-NH2
modifications: staple 1-4, 4-11
B5: I-2399 (peptide)
peptide: Ac-[αAllylPro]D[tBuAla][B5(5)]D[Phe(3-COOH)]AAFL[PyrS2][Phe(2-CF3)][Bta]QAA-NH2
modifications: staple 1-4, 4-11
B6: I-2398 (peptide)
peptide: Ac-[αAllylPro]D[tBuAla][B5(5)]D[Phe(3-COOH)]AAFL[PyrS2″][2F3MeF][Bta]QL[dQ]-NH2
modifications: staple 1-4, 4-11
B7: I-1053 (peptide)
peptide: XDXXDDAAFNXXXQ
modifications: not fully specified; AzAc-PL3-Asp-Npg-B5-Asp-Asp-Ala-Ala-Phe-Asn-S8-3Thi-BztA-Gln-NH2; stapled PL3-B5 and B5-S8 (olefin metathesis)
B8: I-1054 (peptide)
peptide: AzAc-[αAllylPro]D[tBuAla][B5(4)]D[TfeGA]AAFN[PyrS2][3Thi][Bta]Q-NH2
modifications: staple 1-4, 4-11; not fully specified
B9: I-1061 (peptide)
peptide: Ac-[αAllylPro]D[tBuAla][B5(4)]D[TfeGA]AAFT[PyrS2][Phe(2-Cl)][Bta]Q-{NH(CH2)6NH2}
modifications: staple 1-4, 4-11
B10: I-1244 (peptide)
peptide: Ac-[αAllylPro]D[tBuAla][B5(4)]DDAAFT[PyrS2″][Phe(2-Cl)][Bta]S-NHEt
modifications: staple 1-4, 4-11
B11: I-1242 (peptide)
peptide: Ac-[αAllylPro]D[tBuAla][B5(4)]D[TfeGA]AAFT[PyrS2″][Phe(2-Cl)][Bta]-Alaol
modifications: staple 1-4, 4-11
B12: I-1241 (peptide)
peptide: Ac-[αAllylPro]D[tBuAla][B5(4)]D[TfeGA]AAFT[PyrS2″][Phe(2-Cl)][Bta][Thr(ol)]
modifications: staple 1-4, 4-11
B13: I-1245 (peptide)
peptide: Ac-[αAllylPro]D[tBuAla][B5(4)]DDAAFT[PyrS2″][Phe(2-Cl)][Bta][Thr(ol)]
modifications: staple 1-4, 4-11
B14: I-1240 (peptide)
peptide: Ac-[αAllylPro]D[tBuAla][B5(4)]D[TfeGA]AAFT[PyrS2″][Phe(2-Cl)][Bta]Q-NHEt
modifications: staple 1-4, 4-11

target: T1, beta-catenin in DLD1 TCF/LEF luciferase …; experiment: cell-based or functional assay

Binder | DLD1 4% Abs IC50
B1 | > 20 µM
B2 | 0.8 µM
B3 | 0.8 µM
B4 | > 20 µM
B5 | 2.2 µM
B6 | 1.3 µM

target: T2, B-cat-Halo (beta-catenin HaloTag …); experiment: cell-based or functional assay

Binder | NanoBRET Abs IC50
B7 | > 20 µM
B8 | > 20 µM
B9 | 10.3 µM

target: T3, B-cat-Halo; experiment: cell-based or functional assay

Binder | NanoBRET Abs IC50
B10 | 17.7 µM
B11 | > 20 µM
B12 | 15.7 µM
B13 | 12.2 µM
B14 | 11.5 µM

target: T4, beta-catenin in DLD1 TCF/LEF reporter …; experiment: cell-based or functional assay

Binder | DLD1 reporter assay Abs IC50
B10 | 13.9 µM
B11 | 4.8 µM
B12 | 3.8 µM
B13 | 7.3 µM
B14 | 4.9 µM
